The values that follow come from article doi:10.1101/2024.05.16.594476 (bioRxiv, 2024).

Sequences and labels used below:
B1: Mtb RNAP β subunit (natural protein)
chain: MLEGCILADSRQSKTAASPSPSRPQSSSNNSVPGAPNRVSFAKLREPLEVPGLLDVQTDSFEWLIGSPRWRESAAERGDVNPVGGLEEVLYELSPIEDFSGSMSLSFSDPRFDDVKAPVDECKDKDMTYAAPLFVTAEFINNNTGEIKSQTVFMGDFPMMTEKGTFIINGTERVVVSQLVRSPGVYFDETIDKSTDKTLHSVKVIPSRGAWLEFDVDKRDTVGVRIDRKRRQPVTVLLKALGWTSEQIVERFGFSEIMRSTLEKDNTVGTDEALLDIYRKLRPGEPPTKESAQTLLENLFFKEKRYDLARVGRYKVNKKLGLHVGEPITSSTLTEEDVVATIEYLVRLHEGQTTMTVPGGVEVPVETDDIDHFGNRRLRTVGELIQNQIRVGMSRMERVVRERMTTQDVEAITPQTLINIRPVVAAIKEFFGTSQLSQFMDQNNPLSGLTHKRRLSALGPGGLSRERAGLEVRDVHPSHYGRMCPIETPEGPNIGLIGSLSVYARVNPFGFIETPYRKVVDGVVSDEIVYLTADEEDRHVVAQANSPIDADGRFVEPRVLVRRKAGEVEYVPSSEVDYMDVSPRQMVSVATAMIPFLEHDDANRALMGANMQRQAVPLVRSEAPLVGTGMELRAAIDAGDVVVAEESGVIEEVSADYITVMHDNGTRRTYRMRKFARSNHGTCANQCPIVDAGDRVEAGQVIADGPCTDDGEMALGKNLLVAIMPWEGHNYEDAIILSNRLVEEDVLTSIHIEEHEIDARDTKLGAEEITRDIPNISDEVLADLDERGIVRIGAEVRDGDILVGKVTPKGETELTPEERLLRAIFGEKAREVRDTSLKVPHGESGKVIGIRVFSREDEDELPAGVNELVRVYVAQKRKISDGDKLAGRHGNKGVIGKILPVEDMPFLADGTPVDIILNTHGVPRRMNIGQILETHLGWCAHSGWKVDAAKGVPDWAARLPDELLEAQPNAIVSTPVFDGAQEAELQGLLSCTLPNRDGDVLVDADGKAMLFDGRSGEPFPYPVTVGYMYIMKLHHLVDDKIHARSTGPYSMITQQPLGGKAQFGGQRFGEMECWAMQAYGAAYTLQELLTIKSDDTVGRVKVYEAIVKGENIPEPGIPESFKVLLKELQSLCLNVEVLSSDGAAIELREGEDEDLERAAANLGINLSRNESASVEDLA
B2: Mtb GlnR, the nitrogen metabolism regulator (natural protein)
chain: MLELLLLTSELYPDPVLPALSLLPHTVRTAPAEASSLLEAGNADAVLVDARNDLSSGRGLCRLLSSTGRSIPVLAVVSEGGLVAVSADWGLDEILLLSTGPAEIDARLRLVVGRRGDLADQESLGKVSLGELVIDEGTYTARLRGRPLDLTYKEFELLKYLAQHAGRVFTRAQLLHEVWGYDFFGGTRTVDVHVRRLRAKLGPEHEALIGTVRNVGYKAVRPARGRPPAADPDDEDADPGRDGMQEPLVDPLRSQ
B3: Mtb RNAP α subunit (natural protein)
chain: MLISQRPTLSEDVLTDNRSQFVIEPLEPGFGYTLGNSLRRTLLSSIPGAAVTSIRIDGVLHEFTTVPGVKEDVTEIILNLKSLVVSSEEDEPVTMYLRKQGPGEVTAGDIVPPAGVTVHNPGMHIATLNDKGKLEVELVVERGRGYVPAVQNRASGAEIGRIPVDSIYSPVLKVTYKVDATRVEQRTDFDKLILDVETKNSISPRDALASAGKTLVELFGLARELNVEAEGIEIGPSPAEADHIASFALPIDDLDLTVRSYNCLKREGVHTVGELVARTESDLLDIRNFGQKSIDEVKIKLHQLGLSLKDSPPSFDPSEVAGYDVATGTWSTEGAYDEQDYAETEQL
B4: Mtb RNAP σ^A (natural protein)
chain: MAATKASTATDEPVKRTATKSPAASASGAKTGAKRTAAKSASGSPPAKRATKPAARSVKPASAPQDTTTSTIPKRKTRAAAKSAAAKAPSARGHATKPRAPKDAQHEAATDPEDALDSVEELDAEPDLDVEPGEDLDLDAADLNLDDLEDDVAPDADDDLDSGDDEDHEDLEAEAAVAPGQTADDDEEIAEPTEKDKASGDFVWDEDESEALRQARKDAELTASADSVRAYLKQIGKVALLNAEEEVELAKRIEAGLYATQLMTELSERGEKLPAAQRRDMMWICRDGDRAKNHLLEANLRLVVSLAKRYTGRGMAFLDLIQEGNLGLIRAVEKFDYTKGYKFSTYATWWIRQAITRAMADQARTIRIPVHMVEVINKLGRIQRELLQDLGREPTPEELAKEMDITPEKVLEIQQYAREPISLDQTIGDEGDSQLGDFIEDSEAVVAVDAVSFTLLQDQLQSVLDTLSEREAGVVRLRFGLTDGQPRTLDEIGQVYGVTRERIRQIESKTMSKLRHPSRSQVLRDYLD

In test [1] the target is T1, Mtb PhoP, phosphorylated with acetyl phosphate (AcP) (Mycobacterium tuberculosis, UniProt P71814 1-247). Kind of test: […].
The test “Mtb RNAP α subunit” deals with B3. Kind of test: cryo-EM structure.
The test “Mtb RNAP σ^A” has as its target B4. Kind of test: cryo-EM structure.
The target of the test “Mtb RNAP β subunit” is B1. The test is described as follows: cryo-EM structure.
For test [2], the target named is T1, Mtb PhoP, phosphorylated with acetyl …. Kind of test: cryo-EM structure.

On to B1, for which the binding result in test [1] is reported as “binds”.

As to B2, the binding result (with Mtb RNAP α subunit; in the test with Mtb RNAP σ^A; in the test with Mtb RNAP β subunit; in test [2]) was “binds” each time.

For B3, the binding result in test [1] is on record as “binds”.

B4: in test [1], the binding result is listed as “binds”.
